Data reported in paper PMC3610674.
Where two headings read alike, the source gives them in different places.

How the values were obtained:
[1] = biological target: proNS5-HA (proteolytically-processed HA-tagged DENV2 NS5) (dengue virus serotype 2 (DENV2)); experiment: co-IP
[2] = biological target: proNS5-HA (proteolytically-processed HA-tagged DENV2 NS5) (dengue virus serotype 2 (DENV2)); experiment: co-IP; remark: listed apart in the source

“UBR4 (human, endogenous) (from UniProt Q5T4S7 1-5183) (natural protein)” showed a fold UBR4 precipitated against NS5-HA (densitometry) [1] of 2 fold and a fold UBR4 precipitated against NS5-HA (densitometry) [2] of 7 fold.
